From PMC6589724, “A geminivirus betasatellite encoded βC1 protein interacts with PsbP and subverts PsbP‐mediated antiviral defence in plants” come the findings set out here.

For this data set, the target named is T1, GST-βC1 (Radish leaf curl betasatellite (RaLCB), UniProt A9XCM1 1-118).
T1 sequence: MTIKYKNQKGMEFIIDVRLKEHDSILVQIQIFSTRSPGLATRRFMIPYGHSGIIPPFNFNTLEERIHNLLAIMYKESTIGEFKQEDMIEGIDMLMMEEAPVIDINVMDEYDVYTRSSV
As to the kind of experiment: EMSA; 20 mM Tris-HCl pH 8.0, 2 mM DTT, 5 mM MgCl2, 12% glycerol, 25 mM KCl, 2 mM ATP, 10 nM probe, 15 min, room temperature; 3.7% native PAGE. Particulars: protein: recombinant; tags: N-terminal GST (pGEX-6p-2); label: 5'-32P; single strand. (In EMSA bound probe runs differently from free probe, usually more slowly.)

On to ACGCTACGCAGCAGCCTTAGCTAC (ssDNA) [SCR probe (1303-1326)], for which the binding result is recorded as “binds”.
